B1: CPEB3 Ribozyme (parent)
chain: UAACAGGGGGCCACAGCAGAAGCGUUCACGUCGCAGCCCCUGUCAGAUUCUGGUGAAUCUGCGAAUUCUGCUGUAUAUCUC

This series covers variants of B1. Put plainly: self-cleavage, relative activity (ratio to wild type); higher = more cleavage; in vitro, sequencing. The essentials: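 Libraries of CPEB3 self-cleaving ribozyme mutants came from rounds of error-prone PCR and carried barcodes, which DNA sequencing matched to variants. In vitro transcription used T7 RNA polymerase at 37°C for 5 hours, with a further 15 min in DNase I before EDTA stopped the reaction; the ribozymes cleaved during both steps. The RNA was reverse transcribed with template switching and sequenced on Illumina. Relative activity is the cleaved/total read fraction of a variant divided by that of the unmutated ribozyme, averaged over three batches with at least 5 reads.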
Consider UAACAGGGGGCCACAGCAGAAGCGUUCACGCCGCAGCCCCUGUCAGAUUCUGGUGAAUUUGCGAAUUCUGCUGUAUAUCUC [U31C C59U], for which the self-cleavage came out at 0.54.

As to UAACAGGGGGCCACAGCAGAAGCGUUCACGUCGCAGCCCCUGUCAGAUUCUGGUGAAUCUGCGAACUCUGCUGUAUAUCUA [U66C C81A], the self-cleavage amounted to 0.54.

On to UAACAGGGGGCCACAGCAGAAGCGUUCCCGUCGCAGCCCCUGUCAGAUUCUGGUGAAUCUGCGAUUUCUGCUGUAUAUCUC [A28C A65U], for which the self-cleavage worked out at 0.3.

Regarding UAACAGGGGGCCGCAGCAGAAGGGUUCACGUCGCAGCCCCUGUCAGAUUCUGGUGAAUCUGCGAAUUCUGCUGUAUAUCUC [A13G C23G], the self-cleavage was determined as 0.46.

Turning to UAACAGGGGGCCACAGCAGAAGCGUUCACGUCGCAGCCCCUGUCCGAUUCUGGUGAAUCUGCGAAUUCUGCCGUAUAUCUC [A45C U72C], the self-cleavage was found to be 0.49.

For UGACAGGGGGCCACAGCAGAAGCGUUCACGUCGCAGCCCCGGUCAGAUUCUGGUGAAUCUGCGAAUUCUGCUGUAUAUCUC [A2G U41G], the self-cleavage was 0.49.

In the case of UAACAGGGGGCCACAGCAGAAGCGUGCACGUCGCAGCCCCUGCCAGAUUCUGGUGAAUCUGCGAAUUCUGCUGUAUAUCUC [U26G U43C], the self-cleavage was 1.02.

In the case of UAACAGGGGGCCACAGCAGAAGCGUUCACGUCGCAGCCCCUGUCAGAUUUUGGUGAAUCUGCGAAUUCUGCUGUAUACCUC [C50U U78C], the self-cleavage amounted to 0.97.

Regarding UAACAGGGGGCCACAGCAGAAGCGUUCACGUCGCAGCCCUUGUCAGAUUCUGGUGAAUCUGCGAAUUCUGCUGUUUAUCUC [C40U A75U], the self-cleavage amounted to 0.74.

Turning to UAACAGGGGGCCACAGCAGAAGCGUUCACGUAGCAGCCCCUGCCAGAUUCUGGUGAAUCUGCGAAUUCUGCUGUAUAUCUC [C32A U43C], the self-cleavage is 0.35.

UCACAGGGGGCCACAGCAGAAGCGUUCACGUCGCAACCCCUGUCAGAUUCUGGUGAAUCUGCGAAUUCUGCUGUAUAUCUC [A2C G36A]: the self-cleavage came out at 0.22.

For UAACAGGGGGCCUCAGCAGAAGCGUUCACGUCGCAGCCCCUGUCAGGUUCUGGUGAAUCUGCGAAUUCUGCUGUAUAUCUC [A13U A47G], the self-cleavage turned out to be 1.01.

With UAACAGGGGGCCACGGCAGAAGCGUUCACGUCGCAGCCCCUGUCAGAUUCUGGUGAAUCUGCGAAUUCUGCUGUAUAUCGC [A15G U80G], the self-cleavage was 0.86.

For UAACAGGGGGCCACGGCAGAAGCGUUCAGGUCGCAGCCCCUGUCAGAUUCUGGUGAAUCUGCGAAUUCUGCUGUAUAUCUC [A15G C29G], the self-cleavage is 0.16.

Consider UAACAGGGGGCCACAGCAGAAGCGUCCGCGUCGCAGCCCCUGUCAGAUUCUGGUGAAUCUGCGAAUUCUGCUGUAUAUCUC [U26C A28G], for which the self-cleavage was determined as 0.31.

With UAACAGGGGGCCACGGCAGAAGCGUUCACGUCGCAGCCCCGGUCAGAUUCUGGUGAAUCUGCGAAUUCUGCUGUAUAUCUC [A15G U41G], the self-cleavage amounted to 0.38.

As for UAGCAGGGAGCCACAGCAGAAGCGUUCACGUCGCAGCCCCUGUCAGAUUCUGGUGAAUCUGCGAAUUCUGCUGUAUAUCUC [A3G G9A], the self-cleavage stood at 0.53.

For the variant UAACUGGGGGCCACAGCAGAAGCGUUCACGUCGCAGCCCCUGUCAGAUUCUGAUGAAUCUGCGAAUUCUGCUGUAUAUCUC [A5U G53A], the self-cleavage came to 1.14.

For UAACAGGGGGCCACAGCAGAAGCGUUCACGUCGCAGCCCCUGUCAGAUUCUGGUGAAGCUGCGAAUUCUGCUGUAUAUCUC [U58G], the self-cleavage turned out to be 0.34.

Regarding UAACAGGGGGCCACAGCAGAAGCGUGCACGUCGCAGCCCCUGUCAGAUUCUGGUGAAUCUGCGAAUUCUGCUGUAUAACUC [U26G U78A], the self-cleavage is 0.51.

On to UAACAGAGGGCCACAGCAGAAGCGUUCACGCCGCAGCCCCUGUCAGAUUCUGGUGAAUCUGCGAAUUCUGCUGUAUAUCUC [G7A U31C], for which the self-cleavage turned out to be 0.25.

Turning to UAACAGGGGGCCACAGGAGAAGCGUUCACGUCGCAGCCCCUGUCAGAUUCUGGUGAAUCAGCGAAUUCUGCUGUAUAUCUC [C17G U60A], the self-cleavage was determined as 0.19.

Take AAACAGGGGGCCAAAGCAGAAGCGUUCACGUCGCAGCCCCUGUCAGAUUCUGGUGAAUCUGCGAAUUCUGCUGUAUAUCUC [U1A C14A]: the self-cleavage stood at 1.17.

In the case of UAACAGGGGGCCACUGCAGAAGUGUUCACGUCGCAGCCCCUGUCAGAUUCUGGUGAAUCUGCGAAUUCUGCUGUAUAUCUC [A15U C23U], the self-cleavage is 0.23.

Regarding UAACAGGGGGCCACAGCAGAAGCGUUCACGUCGCAGCCCCUGUCAGAUUCUGGUGAAUCCGCGGAUUCUGCUGUAUAUCUC [U60C A64G], the self-cleavage was determined as 0.36.

Turning to UCACAGGGGGCCGCAGCAGAAGCGUUCACGUCGCAGCCCCUGUCAGAUUCUGGUGAAUCUGCGAAUUCUGCUGUAUAUCUC [A2C A13G], the self-cleavage was 0.49.

Turning to UUACAGGGGGCCACAGCAGAAGCGUUCACGUCGCAGCCCCUGUCAGAUUCUGGUGAAUCUGCGAAUUCUGCUGUAUACCUC [A2U U78C], the self-cleavage is 0.87.

With UAACAGGGGGCCACAGCAGAAGCGAUCACGUCGCAGCCCCUGUCAGAUUCUGGUGAAUCUGCGAAUUCUGCUGUGUAUCUC [U25A A75G], the self-cleavage worked out at 0.23.

As to UAACAGGGGGCCACAGCAGAAGCGUUCACGUGGCAGCCCCUGUCAGAUUCUGGUGGAUCUGCGAAUUCUGCUGUAUAUCUC [C32G A56G], the self-cleavage worked out at 0.12.

For UAACAGGGGGCCACAGCAGAAGCGUUCACGUCCCAGCCCCUGUCAGAUUCUGGUGAAUCUGCGGAUUCUGCUGUAUAUCUC [G33C A64G], the self-cleavage is 0.18.

As for UAACAGGAGGCCACAGCAGAGGCGUUCACGUCGCAGCCCCUGUCAGAUUCUGGUGAAUCUGCGAAUUCUGCUGUAUAUCUC [G8A A21G], the self-cleavage was found to be 0.28.

For the variant UAACAGGGGGCCACGGCAGAAGCGUUCACGUCGCAGCCCCUGUCAGAUUCUGGUGAAUCUGCGUAUUCUGCUGUAUAUCUC [A15G A64U], the self-cleavage came out at 0.33.

For UAACAGGGGGCCACAGCAGAAGCGUUCACGUCGCAGCCCCUGUCAGAUUCUGGUGAAUCUGCGAAUUCGGAUGUAUAUCUC [U69G C71A], the self-cleavage is 0.09.

As for UAACAGGGGGCCACAGCAGAAGCGUUCACGUCGGAGCCCCUGUCAGAUUCUGGUGAAUCUGCGAAUUCUGCUGUAUAUCUC [C34G], the self-cleavage was 0.33.

The values above are taken from the RNAGym collection of RNA variant scans (doi:10.1093/nar/gkz1192).
